Reference: paper PMC11276760

Biological target: integrin β1 (on KYSE410 ESCC cells) (UniProt P05556)
Assay: flow cytometry (cell binding)
Details: 0.01 M PBS, 4.5 g/L glucose, 5 mM MgCl2, 1 mg/mL BSA, 0.1 mg/mL yeast tRNA, 30 min on ice, ~1e5 cells, pH not stated

Sequence of integrin β1 (on KYSE410 ESCC cells) (P05556 21-798): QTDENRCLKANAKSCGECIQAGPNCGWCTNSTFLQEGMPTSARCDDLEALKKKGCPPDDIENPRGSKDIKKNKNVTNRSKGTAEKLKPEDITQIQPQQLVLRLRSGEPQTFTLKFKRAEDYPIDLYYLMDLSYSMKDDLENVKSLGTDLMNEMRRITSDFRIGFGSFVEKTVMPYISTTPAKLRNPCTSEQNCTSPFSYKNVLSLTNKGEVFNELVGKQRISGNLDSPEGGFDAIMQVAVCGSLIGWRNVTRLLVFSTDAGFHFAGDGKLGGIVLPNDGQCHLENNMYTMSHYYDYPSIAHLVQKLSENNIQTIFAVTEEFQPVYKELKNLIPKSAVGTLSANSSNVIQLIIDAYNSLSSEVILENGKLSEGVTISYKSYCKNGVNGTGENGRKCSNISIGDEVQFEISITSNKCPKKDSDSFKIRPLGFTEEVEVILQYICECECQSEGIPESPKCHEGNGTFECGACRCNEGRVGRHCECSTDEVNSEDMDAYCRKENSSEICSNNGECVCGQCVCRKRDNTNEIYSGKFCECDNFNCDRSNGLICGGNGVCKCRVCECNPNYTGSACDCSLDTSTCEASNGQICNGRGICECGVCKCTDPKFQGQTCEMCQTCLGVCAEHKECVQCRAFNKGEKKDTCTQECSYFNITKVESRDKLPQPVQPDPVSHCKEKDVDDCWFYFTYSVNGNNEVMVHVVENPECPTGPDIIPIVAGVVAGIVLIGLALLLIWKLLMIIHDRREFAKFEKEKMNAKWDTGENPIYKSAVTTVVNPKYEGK

| Sequence | Kd |
| --- | --- |
| CGCGAATGCTATCGGGGCTAAGTATCAAAATGAGC [A2(35)] | 58.1 nM |
| CGTCGTCGTCGTCGTCGTTTTCGCGAATGCTATCGGGGCTAAGTATCAAAATGAGC / ACGACGACGACGACGACGTTTCGCGAATGCTATCGGGGCTAAGTATCAAAATGAGC [BAD (bivalent aptamer-DNA carrier)] | 7.7 nM |
